Assay results as given in publication doi:10.1101/864769.

Target: CP-capped actin filament barbed ends (not stated | chicken) (UniProt P60709)
Experiment: single-filament uncapping assay

## mouse twinfilin-1 (from UniProt Q91YR1 1-350) (natural protein)
  Kd: 300 nM
